The values below come from US20050208041A1 (Bristol-Myers Squibb, published 2005).

Residue numbers refer to the chain shown, from its start. Names may count otherwise.

For assay [1], the target named is T1, purified recombinant IFNAR-1 extracellular fragment (human, UniProt P17181 28-436).
T1 construct: extracellular domain; also called soluble IFNAR-1; soluble IFNAR
T1 sequence (looked up): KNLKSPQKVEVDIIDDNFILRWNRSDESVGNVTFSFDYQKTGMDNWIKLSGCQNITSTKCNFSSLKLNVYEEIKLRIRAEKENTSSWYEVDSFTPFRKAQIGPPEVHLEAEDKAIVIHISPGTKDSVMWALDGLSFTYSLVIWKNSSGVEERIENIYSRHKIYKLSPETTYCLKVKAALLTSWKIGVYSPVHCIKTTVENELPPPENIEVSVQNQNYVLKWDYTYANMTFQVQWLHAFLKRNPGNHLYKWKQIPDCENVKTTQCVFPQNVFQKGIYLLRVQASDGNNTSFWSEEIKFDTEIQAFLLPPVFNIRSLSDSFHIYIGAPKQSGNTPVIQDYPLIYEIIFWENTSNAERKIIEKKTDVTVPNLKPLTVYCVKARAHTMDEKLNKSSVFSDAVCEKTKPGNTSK
The experiment in a line: Biacore, antibody on immobilized soluble IFNAR-1, maximal response, mean of four. The procedure:
Additional combination variants heavy chain DI M3-B and light chain DI K1-C were also made. These combination variants were also tested for binding to IFNAR-1. […] Binding analysis was done by Biacore, with the antibody bound to immobilized soluble IFNAR-1. Maximal response was determined at two concentrations and values shown are mean of four determinations.
For orientation: In SPR one partner is held on a chip, and binding of the other changes the refractive index at the surface.

For assay [2], the target named is T1, purified recombinant IFNAR-1 …. The experiment in a line: Biacore, response on IFNAR-1 (flow cell 2) divided by response on anti-human IgG Fc (flow cell 4). The source says:
A series of antibodies were constructed with reduced numbers of potential T-cell epitopes. These included heavy chain variants M3-A and M3-B in which residues were changed in CDR regions and DI M3 in which framework residues were altered. De-immunized light chains were also constructed termed K1-C, K1-D, K1-E and DI K1. The antibodies were expressed and purified before analysis by Biacore. A Biacore chip was used with IFNAR-1 coated on Flow cell 2 at 690 RU and anti-human IgG Fc on flow cell 4 at 5000 RU. Binding of the antibody to IFNAR-1 relative to anti-human IgG Fc was determined by the ratio of response at flow cell 2 divided by flow cell 4 (Fc2/Fc4).

Assay [3] deals with T2, IFNAR-1 on human cells (human, UniProt P17181 28-557).
T2 sequence (looked up): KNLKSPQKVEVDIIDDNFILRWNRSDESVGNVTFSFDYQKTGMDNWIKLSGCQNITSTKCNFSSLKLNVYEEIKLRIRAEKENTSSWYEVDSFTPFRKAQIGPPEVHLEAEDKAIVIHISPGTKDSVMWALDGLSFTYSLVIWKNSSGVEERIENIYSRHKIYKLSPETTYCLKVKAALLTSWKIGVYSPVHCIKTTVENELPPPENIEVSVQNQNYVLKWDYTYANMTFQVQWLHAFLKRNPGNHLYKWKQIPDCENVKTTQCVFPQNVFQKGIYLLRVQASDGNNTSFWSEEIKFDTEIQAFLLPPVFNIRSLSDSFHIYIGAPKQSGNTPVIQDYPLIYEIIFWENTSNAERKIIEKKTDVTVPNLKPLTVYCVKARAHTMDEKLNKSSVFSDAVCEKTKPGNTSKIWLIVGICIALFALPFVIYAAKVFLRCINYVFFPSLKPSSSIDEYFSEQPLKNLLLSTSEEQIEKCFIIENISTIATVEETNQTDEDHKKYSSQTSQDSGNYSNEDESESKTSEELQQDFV
Put plainly: cell-based or functional assay.

The target in assay [4] is T1, purified recombinant IFNAR-1 …. The experiment in a line: Biacore, antibody captured on anti-human IgG Fc, soluble IFNAR 25-400 nM, flow cell 4-3 higher density capture.
Assay [5] shares this target. Put plainly: Biacore, antibody captured on anti-human IgG Fc, soluble IFNAR 25-400 nM, flow cell 2-1 low density capture.
The target is the same in assay [6]. The experiment in a line: Biacore, maximal association on IFNAR-1 relative to M3K1. The source says:
Pools 4 and 11 were selected for further study and the individual antibodies in each pool were produced and expressed separately. The sequences of these individual antibodies were as shown in SEQ ID NO:12 of FIG. 1F and SEQ ID NO: 13 of FIG. 1G. The data is presented as maximal association relative to M3K1. […]

For assay [7] the target is unchanged. Put plainly: Biacore, IFNAR-1 extracellular fragment coupled to CM5 chip, antibody 1.75-80 nM. Here is the method: Antibodies from clones 64G12, H2K6, H2K1, H3K6, and H3K1 were assayed by Biacore analysis (Biacore AB, Uppsala, Sweden) to determine binding kinetics. Purified recombinant IFNAR-1 extracellular fragment was coupled to the CM5 sensor chip @ 600 RU. Binding was measured by adding antibody at concentrations from 1.75-80 nM at a flow rate of 20 ul/min. The binding curves were fit to a Langmuir binding model using BIAevaluation software (Biacore AB, Uppsala, Sweden).

B1: DI M3 heavy chain with K1 light chain (antibody, human IgG4, V domains shown)
VH: EVQLLESGGGLVQPGGSLRLSCAASGFTMSTSGMGIGWIRQTPGKGLEWVAHIWWDDDKYYNPSLKSRFTISKDTSKNTLYLQMNSLRAEDTAVYYCARNYYPYDAWFDYWGQGTLVTVS
VL: DIQMTQSPSSLSASVGDRVTITCSASSSINSNHLHWYQQKPGKAPKLLIYRTSILASGVPSRFSGSGSGTSFTLTISSLQPEDFATYYCQQGSNIPFTFGQGTKVEIKR
notes: also called DI M3 K1
Turning to B1, the “% response relative to H3K1” value in assay [1] was 149%. Besides, in assay [2], the “% activity relative to H3K1” value was found to be 137% and the Fc2/Fc4 was determined as 0.41.

B2: M3 heavy chain with DI K1 light chain (antibody, human IgG4, V domains shown)
VH: B1 VH with A24F, M29L, I39V, T42A, K73R, L80V
VL: B1 VL with V19A, Q38L, L47A, V59I, S71D, F84T
notes: also called M3 DI K1
With B2, in assay [1], the “% response relative to H3K1” value came to 25%. Further, in assay [2], the “% activity relative to H3K1” value worked out at 57% and the Fc2/Fc4 worked out at 0.17.

B3: DI M3-B K1C (h IgG1) (antibody, V domains shown)
VH: B1 VH with S67A, K73R
VL: B1 VL with S27T
For the molecule B3, in assay [3], the “Cell Proliferation (Daudi) IC50, cells cultured with interferon α2b” value turned out to be 10 nM and the “ISRE-RG Reporter (U937) IC50, interferon α2b” value worked out at 4.6 nM.

B4: DI M3-B heavy chain with DI K1 light chain (antibody, V domains shown)
VH: B1 VH with S67A, K73R
VL: B1 VL with V19A, Q38L, L47A, V59I, S71D, F84T
notes: also called DI M3-B DI K1
With B4, in assay [1], the “% response relative to H3K1” value was 11%.

B5: M3-B heavy chain with DI K1-C light chain (antibody, V domains shown)
VH: B1 VH with A24F, M29L, I39V, T42A, S67A, K73R, L80V
VL: B1 VL with S27T, Q38L, L47A, V59I, S71D, F84T
notes: also called M3-B DI K1-C
As to B5, the “% response relative to H3K1” value in assay [1] worked out at 14%.

B6: M3 heavy chain with K1-C light chain (antibody, human IgG4, V domains shown)
VH: B1 VH with A24F, M29L, I39V, T42A, K73R, L80V
VL: B1 VL with S27T
notes: also called M3 K1-C
Take B6: in assay [1], the “% response relative to H3K1” value came to 100%. In assay [2], the “% activity relative to H3K1” value amounted to 97% and the Fc2/Fc4 turned out to be 0.29.

B7: DI M3-B heavy chain with DI K1-C light chain (antibody, V domains shown)
VH: B1 VH with S67A, K73R
VL: B1 VL with S27T, Q38L, L47A, V59I, S71D, F84T
notes: also called DI M3-B DI K1-C
B7: in assay [1], the “% response relative to H3K1” value is 9%.

B8: M3-B heavy chain with K1 light chain (antibody, human IgG4, V domains shown)
VH: B1 VH with A24F, M29L, I39V, T42A, S67A, K73R, L80V
VL: B1 VL
notes: also called M3-B K1
Consider B8, for which, in assay [1], the “% response relative to H3K1” value came out at 117%. For the same molecule, in assay [2], the “% activity relative to H3K1” value was 103% and the Fc2/Fc4 amounted to 0.31.

B9: DI M3-B heavy chain with K1 light chain (antibody, V domains shown)
VH: B1 VH with S67A, K73R
VL: B1 VL
notes: also called DI M3-B K1
B9: the “% response relative to H3K1” value in assay [1] was determined as 122%.

B10: DI M3-B heavy chain with K1-C light chain (Example 3) (antibody, V domains shown)
VH: B1 VH with S67A, K73R
VL: B1 VL with S27T
notes: also called DIM3-B K1-C; DI M3-B K1-C
For orientation: Kd means the concentration at which binding is half-saturated. As usually defined, the koff is the first-order rate constant of dissociation. Usually kon stands for the rate constant with which the complex forms. For the molecule B10, the “% response relative to H3K1” value in assay [1] was 100%. In assay [4], the Kd was 3.53 nM, the koff came out at 1.64e-05 s⁻¹ and the kon stood at 4640 M⁻¹ s⁻¹. Besides, in assay [5], the Kd amounted to 0.502 nM, the koff is 2.82e-06 s⁻¹ and the kon is 5610 M⁻¹ s⁻¹.

B11: M3-11 (X = V) heavy chain with K1 light chain (antibody, V domains shown)
VH: B1 VH with A24F, M29L, I39V, T42A, K73R, L80V, Y110V
VL: DIQMTQSPSSLSASVGDRVTITCSASSSINSNHLHWYQQKPGKAPKLLIYRTSILASGVPSRFSGSGSGTSFTLTISSLQPEDFATYYCQQGSNIPFTFGQGTKVEIK
notes: Position counted within VH CDR3; also called M3-11 V
For the molecule B11, in assay [6], the “% activity relative to M3K1” value was 108%.

B12: DI M3 heavy chain with DI K1-C light chain (antibody, V domains shown)
VH: B1 VH
VL: B1 VL with S27T, Q38L, L47A, V59I, S71D, F84T
notes: also called DI M3 DI K1-C
Regarding B12, the “% response relative to H3K1” value in assay [1] turned out to be 4%.

B13: DI M3 heavy chain with K1-C light chain (antibody, V domains shown)
VH: B1 VH
VL: B1 VL with S27T
notes: also called DI M3 K1-C
Regarding B13, in assay [1], the “% response relative to H3K1” value came to 96%.

B14: M3-11 (X = T) heavy chain with K1 light chain (antibody, V domains shown)
VH: B1 VH with A24F, M29L, I39V, T42A, K73R, L80V, Y110T
VL: B11 VL
notes: Position counted within VH CDR3; also called M3-11 T
Consider B14, for which the “% activity relative to M3K1” value in assay [6] was found to be 82%.

B15: M3-B heavy chain with DI K1 light chain (antibody, V domains shown)
VH: B1 VH with A24F, M29L, I39V, T42A, S67A, K73R, L80V
VL: B1 VL with V19A, Q38L, L47A, V59I, S71D, F84T
notes: also called M3-B DI K1
Take B15: the “% response relative to H3K1” value in assay [1] came out at 17%.

B16: M3-B heavy chain with K1-C light chain (antibody, V domains shown)
VH: B1 VH with A24F, M29L, I39V, T42A, S67A, K73R, L80V
VL: B1 VL with S27T
notes: also called M3-B K1-C
Turning to B16, in assay [1], the “% response relative to H3K1” value came to 156%. In addition, in assay [4], the Kd was determined as 7.45 nM, the koff was 4.06e-05 s⁻¹ and the kon is 5460 M⁻¹ s⁻¹. In assay [5], the Kd came out at 7.47 nM, the koff was 4.1e-05 s⁻¹ and the kon is 5490 M⁻¹ s⁻¹.

B17: M3 heavy chain with DI K1-C light chain (antibody, V domains shown)
VH: B1 VH with A24F, M29L, I39V, T42A, K73R, L80V
VL: B1 VL with S27T, Q38L, L47A, V59I, S71D, F84T
notes: also called M3 DI K1-C
Turning to B17, the “% response relative to H3K1” value in assay [1] came out at 17%.

B18: DI M3 heavy chain with DI K1 light chain (antibody, human IgG4, V domains shown)
VH: B1 VH
VL: B1 VL with V19A, Q38L, L47A, V59I, S71D, F84T
notes: also called DI M3 DI K1
As for B18, the “% response relative to H3K1” value in assay [1] turned out to be 8%. In assay [2], the “% activity relative to H3K1” value was found to be 20% and the Fc2/Fc4 is 0.06.

B19: M3-11 (X = W) heavy chain with K1 light chain (antibody, V domains shown)
VH: B1 VH with A24F, M29L, I39V, T42A, K73R, L80V, Y110W
VL: B11 VL
notes: Position counted within VH CDR3; also called M3-11 W
Consider B19, for which the “% activity relative to M3K1” value in assay [6] worked out at 70%.

B20: M3-11 (X = S) heavy chain with K1 light chain (antibody, V domains shown)
VH: B1 VH with A24F, M29L, I39V, T42A, K73R, L80V, Y110S
VL: B11 VL
notes: Position counted within VH CDR3; also called M3-11 S
Turning to B20, the “% activity relative to M3K1” value in assay [6] was 39%.

B21: mouse-human chimeric antibody with 64G12 variable regions and human IgG4 kappa constant regions (antibody, V domains shown)
VH: QVTLKESGPGILKPSQTLSLTCSFSGFSLSTSGMGIGWIRQPSGKGLEWLAHIWWDDDKYYNPSLKSQLTISRDTSTNQVFLNITSVDTVDTATYYCGRNYYPYDAWFDYWGQGTLVTVS
VL: EIVLTQSPTTMAASPGEKITITCSASSSINSNHLHWYQQKPGFSPKVLIYRTSILASGVPTRFSGSGSGTSYSLTIGTMEAEDVATYYCQQGSNIPFTFGSGTELEIKR
notes: also called Chimeric IgG4; human IgG4 chimeric antibody
For the molecule B21, the Kd in assay [7] came out at 3.6 nM.
